Data from patent US20080105961A1, “Ligands of the Molecule Fit (Agt-121) and their Pharmaceutical Use” (priority 2004, published 2008).
Marks after values point to notes of the source that are not given here.

Experiments:
[1] = molecular target: T1, FIT-NP (FIT N-terminal plus proline-rich region) (Homo sapiens, UniProt Q9BQI5); test: Yeast two-hybrid screen of human brain cDNA library, bait FIT-NP; type: binding; details: for Number of clones: bait FIT-NP, human brain cDNA library, clones listed highest to lowest interacting strength; for strength of interaction with FIT: in yeast
T1 construct: expressed in transfected cells
T1 sequence (Q9BQI5 with tags, fused parts or gaps I33M/P40L/N43H/V56A/I186T/P191L/T195L/E211G/Q212H/I230V/T240A/N255T/I269V/G270A/P271T/S276A/V280A/L285P/N289S/A308T/K311T/T318A/S335T/T339A/P340S/N342I/A348T/L352P/P357S/T358A/DEL367-367/L371P/I397L/D402E/F403C/A409E/P432S/P434T/T437A/R454S/S455C/T456S): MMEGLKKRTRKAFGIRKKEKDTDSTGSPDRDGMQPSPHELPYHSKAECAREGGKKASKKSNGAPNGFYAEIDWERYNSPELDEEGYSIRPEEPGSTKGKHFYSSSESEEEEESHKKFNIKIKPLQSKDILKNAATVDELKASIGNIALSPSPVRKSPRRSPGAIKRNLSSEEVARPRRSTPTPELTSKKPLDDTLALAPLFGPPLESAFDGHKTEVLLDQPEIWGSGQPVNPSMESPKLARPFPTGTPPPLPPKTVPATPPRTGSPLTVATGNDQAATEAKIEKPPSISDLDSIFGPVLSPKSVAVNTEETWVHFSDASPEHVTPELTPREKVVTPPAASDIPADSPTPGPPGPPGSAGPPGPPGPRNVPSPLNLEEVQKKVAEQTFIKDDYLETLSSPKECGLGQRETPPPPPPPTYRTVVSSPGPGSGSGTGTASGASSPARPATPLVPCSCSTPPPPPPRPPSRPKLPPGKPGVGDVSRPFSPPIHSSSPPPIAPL
Source text: (§1) In order to perform these experiments, two truncated fragments of FIT were constructed to be used as baits in a yeast two-hybrid screen of a human brain cDNA library: one bait consisting of the N-terminal region plus the central proline-rich region, and the other bait consisting of the central proline-rich region alone. The inventors utilised a yeast two-hybrid system which incorporates modifications by Chevray and Nathans (1992), and Vidal et al. (1996) to screen a human brain cDNA library. FIT fragments were PCR amplified, purified and then cloned into an appropriate vector. Sense oligonucleotides for FIT-NP (5′-[…]-3′: SEQ ID NO:72), and FIT-PR (5′-[…]-3′: SEQ ID NO:73), with Sal1 restriction enzyme sites underlined, were used in conjunction with a common antisense oligonucleotide (5′-[…]-3′: SEQ ID NO:74), with the Not1 restriction enzyme site underlined.
(§2) Human brain cDNA inserts were prepared and cloned into the expression vector according to manufacturer's instructions.

[2] = test system: melanocortin receptor; test: Feeding response to ICV injection of SHU9119 after three days of ODN or saline infusion; type: in vivo, Sprague Dawley rats; details: mean ± SEM
Source text: To further analyse the link between FIT and the melanocortin system, the feeding response of Sprague Dawley rats to an ICV injection of SHU9119, a melanocortin receptor antagonist and known feeding stimulator was investigated. After three days of FIT antisense treatment, jumbled oligonucleotide or saline infusion, responses were compared to rats receiving an ICV injection of saline vehicle rather than SHU9119.

[3] = molecular target: T2, FIT-PR (FIT proline-rich region) (Homo sapiens, UniProt Q9BQI5); test: Yeast two-hybrid screen of human brain cDNA library, bait FIT-PR; type: binding; details: clones listed highest to lowest interacting strength
T2 construct: expressed in transfected cells
T2 sequence (Q9BQI5 with tags, fused parts or gaps N255T/I269V/G270A/P271T/S276A/V280A/L285P/N289S/A308T/K311T/T318A/S335T/T339A/P340S/N342I/A348T/L352P/P357S/T358A/DEL367-367/L371P/I397L/D402E/F403C/P432S/P434T/T437A/R454S/S455C/T456S): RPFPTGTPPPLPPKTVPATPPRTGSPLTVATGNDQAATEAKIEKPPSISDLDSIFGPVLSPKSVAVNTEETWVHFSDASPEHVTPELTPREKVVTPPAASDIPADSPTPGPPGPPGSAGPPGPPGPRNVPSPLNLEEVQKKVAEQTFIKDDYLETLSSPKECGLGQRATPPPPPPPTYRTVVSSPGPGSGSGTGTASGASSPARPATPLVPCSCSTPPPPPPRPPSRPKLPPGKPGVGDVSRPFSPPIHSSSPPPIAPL
Source text: as §1, with “To investigate the mechanism by which FIT regulates energy balance, neural proteins that interact with FIT were identified. In” for “In”
as §2

## MAD2: FIT interacting protein isolated from a human brain cDNA library
[1]
  Number of clones: 1

## SHU9119
[2]; 48 hr food intake post minus pre injection
  Δ FI: 0.02 ± 0.01 g/g BW
[2]; food intake relative to body weight, after ICV SHU9119 or vehicle injection
  48 hr FI post injection: 0.16 ± 0.01^a g/g BW
[2]; food intake relative to body weight, during ICV infusion, before SHU9119 or vehicle injection
  48 hr FI pre injection: 0.14 ± 0.01 g/g BW

## β-arrestin 1: FIT interacting protein isolated from a human brain cDNA library
[1]
  Number of clones: 1
  strength of interaction with FIT: slightly lesser strength

B1: endophilin 3: FIT interacting protein isolated from a human brain cDNA library (protein)
chain: MSVAGLKKQFHKASQLFSEKISGAEGTKLDDEFLDMERKIDVTNKVVAEILSKTTEYLQPNPAYRAKLGMLNTVSKIRGQVKTTGYPQTEGLLGDCMLKYGKELGEDSTFGNALIEVGESMKLMAEVKDSLDINVKQTFIDPLQLLQDKDLKEIGHHLKKLEGRRLDYDYKKKRVGKIPDEEVRQAVEKFEESKELAERSMFNFLENDVEQVSQLAVFIEAALDYHRQSTEILQELQSKLQMRISAASSVPRREYKPRPVKRSSSELNGVSTTSVVKTTGSNIPMDQPCCRGLYDFEPENQGELGFKEGDIITLTNQIDENWYEGMIHGESGFFPINYVEVIVPLPQ
modifications: left off: large carriers
[3]
  Number of clones: 2
[1]
  Number of clones: 7
  strength of interaction with FIT: very strongly

B2: endophilin 1: FIT interacting protein isolated from a human brain cDNA library (protein)
chain: MSVAGLKKQFHKATQKVSEKVGGAEGTKLDDDFKEMERKVDVTSRAVMEIMTKTIEYLQPNPASRAKLSMINTMSKIRGQEKGPGYPQAEALLAEAMLKFGRELGDDCNFGPALGEVGEAMRELSEVKDSLDIEVKQNFIDPLQNLHDKDLREIQHHLKKLEGRRLDFDYKKKRQGKIPDEELRQALEKFDESKEIAESSMFNLLEMDIEQVSQLSALVQAQLEYHKQAVQILQQVTVRLEERIRQASSQPRREYQPKPRMSLEFPTGDSTQPNGGLSHTGTPKPSGVQMDQPCCRALYDFEPENEGELGFKEGDIITLTNQIDENWYEGMLHGHSGFFPINYVEILVALPH
modifications: left off: large carriers
[3]
  Number of clones: 12
[1]
  Number of clones: 14
  strength of interaction with FIT: very strongly

B3: RNA-binding protein EWS: FIT interacting protein isolated from a human brain cDNA library (protein)
chain: MASTDYSTYSQAAAQQGYSAYTAQPTQGYAQTTQAYGQQSYGTYGQPTDVSYTQAQTTATYGQTAYATSYGQPPTGYTTPTAPQAYSQPVQGYGTGAYDTTTATVTTTQASYAAQSAYGTQPAYPAYGQQPAATAPTRPQDGNKPTETSQPQSSTGGYNQPSLGYGQSNYSYPQVPGSYPMQPVTAPPSYPPTSYSSTQPTSYDQSSYSQQNTYGQPSSYGQQSSYGQQSSYGQQPPTSYPPQTGSYSQAPSQYSQQSSSYGQQSSFRQDHPSSMGVYGQESGGFSGPGENRSMSGPDNRGRGRGGFDRGGMSRGGRGGGRGGMGSAGERGGFNKPGGPMDEGPDLDLGPPVDPDEDSDNSAIYVQGLNDSVTLDDLADFFKQCGVVKMNKRTGQPMIHIYLDKETGKPKGDATVSYEDPPTAKAAVEWFDGKDFQGSKLKVSLARKKPPMNSMRGGLPPREGRGMPPPLRGGPGGPGGPGGPMGRMGGRGGDRGGFPPRGPRGSRGNPSGGGNVQHRAGDWQCPNPGCGNQNFAWRTECNQCKAPKPEGFLPPPFPPPGGDRGRGGPGGMRGGRGGLMDRGGPGGMFRGGRGGDRGGFRGGRGMDRGGFGGGRRGGPGGPPGPLMEQMGGRRGGRGGPGKMDKGEHRQERRDRPY
modifications: left off: large carriers
[1]
  Number of clones: 1

B4: α-2 subunit of the AP2 complex: FIT interacting protein isolated from a human brain cDNA library (protein)
chain: MPAVSKGDGMRGLAVFISDIRNCKSKEAEIKRINKELANIRSKFKGDKALDGYSKKKYVCKLLFIFLLGHDIDFGHMEAVNLLSSNRYTEKQIGYLFISVLVNSNSELIRLINNAIKNDLASRNPTFMGLALHCIASVGSREMAEAFAGEIPKVLVAGDTMDSVKQSAALCLLRLYRTSPDLVPMGDWTSRVVHLLNDQHLGVVTAATSLITTLAQKNPEEFKTSVSLAVSRLSRIVTSASTDLQDYTYYFVPAPWLSVKLLRLLQCYPPPDPAVRGRLTECLETILNKAQEPPKSKKVQHSNAKNAVLFEAISLIIHHDSEPNLLVRACNQLGQFLQHRETNLRYLALESMCTLASSEFSHEAVKTHIETVINALKTERDVSVRQRAVDLLYAMCDRSNAPQIVAEMLSYLETADYSIREEIVLKVAILAEKYAVDYTWYVDTILNLIRIAGDYVSEEVWYRVIQIVINRDDVQGYAAKTVFEALQAPACHENLVKVGGYILGEFGNLIAGDPRSSPLIQFHLLHSKFHLCSVPTRALLLSTYIKFVNLFPEVKPTIQDVLRSDSQLRNADVELQQRAVEYLRLSTVASTDILATVLEEMPPFPERESSILAKLKKKKGPSTVTDLEDTKRDRSVDVNGGPEPAPASTSAVSTPSPSADLLGLGAAPPAPAGPPPSSGGSGLLVDVFSDSASVVAPLAPGSEDNFARFVCKNNGVLFENQLLQIGLKSEFRQNLGRMFIFYGNKTSTQFLNFTPTLICSDDLQPNLNLQTKPVDPTVEGGAQVQQVVNIECVSDFTEAPVLNIQFRYGGTFQNVSVQLPITLNKFFQPTEMASQDFFQRWKQLSNPQQEVQNIFKAKHPMDTEVTKAKIIGFGSALLEEVDPNPANFVGAGIIHTKTTQIGCLLRLEPNLQAQMYRLTLRTSKEAVSQRLCELLSAQF
modifications: left off: large carriers
[1]
  Number of clones: 1
  strength of interaction with FIT: slightly lesser strength

B5: α-1 subunit of the AP2 complex: FIT interacting protein isolated from a human brain cDNA library (protein)
chain: MPAVSKGDGMRGLAVFISDIRNCKSKEAEIKRINKELANIRSKFKGDKALDGYSKKKYVCKLLFIFLLGHDIDFGHMEAVNLLSSNKYTEKQIGYLFISVLVNSNSELIRLINNAIKNDLASRNPTFMCLALHCIANVGSREMGEAFAADIPRILVAGDSMDSVKQSAALCLLRLYKASPDLVPMGEWTARVVHLLNDQHMGVVTAAVSLITCLCKKNPDDFKTCVSLAVSRLSRIVSSASTDLQDYTYYFVPAPWLSVKLLRLLQCYPPPEDAAVKGRLVECLETVLNKAQEPPKSKKVQHSNAKNAILFETISLIIHYDSEPNLLVRACNQLGQFLQHRETNLRYLALESMCTLASSEFSHEAVKTHIDTVINALKTERDVSVRQRAADLLYAMCDRSNAKQIVSEMLRYLETADYAIREEIVLKVAILAEKYAVDYSWYVDTILNLIRIAGDYVSEEVWYRVLQIVTNRDDVQGYAAKTVFEALQAPACHENMVKVGGYILGEFGNLIAGDPRSSPPVQFSLLHSKFHLCSVATRALLLSTYIKFINLFPETKATIQGVLRAGSQLRNADVELQQRAVEYLTLSSVASTDVLATVLEEMPPFPERESSILAKLKRKKGPGAGSALDDGRRDPSSNDINGGMEPTPSTVSTPSPSADLLGLRAAPPPAAPPASAGAGNLLVDVFDGPAAQPSLGPTPEEAFLSELEPPAPESPMALLADPAPAADPGPEDIGPPIPEADELLNKFVCKNNGVLFENQLLQIGVKSEFRQNLGRMYLFYGNKTSVQFQNFSPTVVHPGDLQTQLAVQTKRVAAQVDGGAQVQQVLNIECLRDFLTPPLLSVRFRYGGAPQALTLKLPVTINKFFQPTEMAAQDFFQRWKQLSLPQQEAQKIFKANHPMDAEVTKAKLLGFGSALLDNVDPNPENFVGAGIIQTKALQVGCLLRLEPNAQAQMYRLTLRTSKEPVSRHLCELLAQQF
modifications: left off: large carriers
[1]
  Number of clones: 8
  strength of interaction with FIT: slightly lesser strength
